Assay results: paper PMC3498520 (Journal of the American Chemical Society, 2012)

Type: biochemical
Conditions: total turnovers in ART hydroxylation; purified P450, NADPH regeneration system, 12 h

B1: wild-type P450BM3: catalytically self-sufficient fatty acid monooxygenase P450BM3 from Bacillus megaterium (protein, UniProt P14779 1-1049, looked up)
Bifunctional cytochrome …: MTIKEMPQPKTFGELKNLPLLNTDKPVQALMKIADELGEIFKFEAPGRVTRYLSSQRLIKEACDESRFDKNLSQALKFVRDFAGDGLFTSWTHEKNWKKAHNILLPSFSQQAMKGYHAMMVDIAVQLVQKWERLNADEHIEVPEDMTRLTLDTIGLCGFNYRFNSFYRDQPHPFITSMVRALDEAMNKLQRANPDDPAYDENKRQFQEDIKVMNDLVDKIIADRKASGEQSDDLLTHMLNGKDPETGEPLDDENIRYQIITFLIAGHETTSGLLSFALYFLVKNPHVLQKAAEEAARVLVDPVPSYKQVKQLKYVGMVLNEALRLWPTAPAFSLYAKEDTVLGGEYPLEKGDELMVLIPQLHRDKTIWGDDVEEFRPERFENPSAIPQHAFKPFGNGQRACIGQQFALHEATLVLGMMLKHFDFEDHTNYELDIKETLTLKPEGFVVKAKSKKIPLGGIPSPSTEQSAKKVRKKAENAHNTPLLVLYGSNMGTAEGTARDLADIAMSKGFAPQVATLDSHAGNLPREGAVLIVTASYNGHPPDNAKQFVDWLDQASADEVKGVRYSVFGCGDKNWATTYQKVPAFIDETLAAKGAENIADRGEADASDDFEGTYEEWREHMWSDVAAYFNLDIENSEDNKSTLSLQFVDSAADMPLAKMHGAFSTNVVASKELQQPGSARSTRHLEIELPKEASYQEGDHLGVIPRNYEGIVNRVTARFGLDASQQIRLEAEEEKLAHLPLAKTVSVEELLQYVELQDPVTRTQLRAMAAKTVCPPHKVELEALLEKQAYKEQVLAKRLTMLELLEKYPACEMKFSEFIALLPSIRPRYYSISSSPRVDEKQASITVSVVSGEAWSGYGEYKGIASNYLAELQEGDTITCFISTPQSEFTLPKDPETPLIMVGPGTGVAPFRGFVQARKQLKEQGQSLGEAHLYFGCRSPHEDYLYQEELENAQSEGIITLHTAFSRMPNQPKTYVQHVMEQDGKKLIELLDQGAHFYICGDGSQMAPAVEATLMKSYADVHQVSEADARLWLQQLEEKGRYAKDVWAG
- TTN: no ART-oxidation activity
